Series [1] concerns T1, Cc1cc(=O)oc2cc(NC(=O)[C@H](CCCNC(=N)N)NC(=O)[C@H](Cc3ccccc3)NC(=O)[C@H](C)NC(=O)[C@H](CCCCN)NC(=O)CN)ccc12.
T1 construct: made in house
Put plainly: hK2 mediated hydrolysis of peptide substrates in solution (fluorescence). The class given is biochemical, human. To be noted: other: Lineweaver-Burke reciprocal plots; 37.0 °C.

For series [2], the system named is T2, C[C@H](NC(=O)[C@H](CCCCN)NC(=O)CNC(=O)[C@@H](N)Cc1ccc(O)c([N+](=O)[O-])c1)C(=O)N[C@@H](Cc1ccccc1)C(=O)N[C@@H](CCCNC(=N)N)C(=O)N[C@@H](CCCNC(=N)N)C(=O)N[C@@H](CN)C(=O)N[C@@H](Cc1ccccc1)C(=O)N[C@@H](CCCCNC(=O)c1ccccc1N)C(=O)O.
T2 construct: made in house
The description is as above. The class given is biochemical, human. To be noted: other: Lineweaver-Burke reciprocal plots; 37.0 °C. Here is the method: FIG. 2 depicts a graph of hK2 mediated hydrolysis of peptide substrates identified through the screening of a random peptide library [Y′GKARAF-Dap-FK′ (SEQ ID NO:36), Y′GKAKPR-Dap-FK′ (SEQ ID NO:37), Y′GKAFRR-Dap-FK′ (SEQ ID NO:38), Y′GKAMRQ-Dap-FK′ (SEQ ID NO:39) and Y′GSKGHFKL-Dap-F-K′ (SEQ ID NO:40)]. Substrates (250 μM) were incubated with 8 μg/ml hK2 in PBS buffer. Hydrolysis of peptide results in increased fluorescence, as measured using a 96 well fluorometer. […] To determine 100% digestion, trypsin was added (50 mg/ml) and samples were incubated to 37° C. for 30 min and the fluorescence was determined. The percentage digested is determined by dividing fluorescence units of sample by fluorescence units of control fully digested peptide.
A mutant form of hK2 was utilized in which the amino acids −5 to −1 of the propeptide sequence of hK2 (i.e. Leu-Ile-Gln-Ser-Arg; SEQ ID NO:15) were mutated to Asp-Asp-Asp-Asp-Lys (SEQ ID NO:16) to generate a pro-hK2 protein that can be activated to functional hK2 by […] (Lovgren, J. et al. (1999) Eur. J. Biochem. 266:1050-1055). […]
For validation of the Edman results, peptides were re-synthesized using a Rainin PS3 peptide synthesizer with HBTU/NMM activation. […] Fluorescence measurements were performed on a Fluoroskan II 96-well plate reader (ICN biomedicals, Costa Mesa, Calif.; excitation, 355 nm; emission, 460 nm). Kinetic parameters were calculated as described earlier (Denmeade, S. R. et al. (1997) Cancer Res. 57:4924-4930).
The combinatorial screen identified seven arginine-containing peptides. […] All four arginine-containing sequences that were re-synthesized reproduced fluorescence when these peptides were digested on-bead with hK2. For a more quantitative analysis, the fluorescence-quenched peptides were cleaved off the resin and purified by HPLC. The rate of hydrolysis was quantified by measuring increase in fluorescence (Figure). […] In subsequent studies, hydrolysis rates using the Y′GKAFRR-Dap-F-K′ (SEQ ID NO:38) peptide were analyzed by Lineweaver-Burke reciprocal plots.

The term Km denotes the concentration of substrate that gives half-maximal velocity. A word on the kcat: it is the number of substrate molecules converted per active site and unit of time at saturation. Usually kcat/Km stands for the turnover number divided by the Michaelis constant. On to hK2 (Homo sapiens), for which, in series [1], the Km was 146 µM, the kcat came to 0.13 s⁻¹ and the kcat/Km worked out at 895 M⁻¹ s⁻¹. In series [2], the Km came to 26.5 µM, the kcat is 1.09 s⁻¹ and the kcat/Km is listed as 41,132 sec^−1 M^−1.

For the origin of these results see patent US7906477B2, “Activation of peptide prodrugs by hK2” (Genspera, Inc., priority 2002, dated 2011).
